# Laboratory results from patent publication US20180155451A1 (published 2018).
# T1: FcγRIIa R (extracellular domain with a His tag at the C terminus) (human, UniProt P12318 34-217)
# T1 construct: extracellular domain; expressed in FreeStyle293 cells; also called FcgRIIa R; FcγRIIa type R; not shown: His tag at the C terminus
# T1 sequence (looked up): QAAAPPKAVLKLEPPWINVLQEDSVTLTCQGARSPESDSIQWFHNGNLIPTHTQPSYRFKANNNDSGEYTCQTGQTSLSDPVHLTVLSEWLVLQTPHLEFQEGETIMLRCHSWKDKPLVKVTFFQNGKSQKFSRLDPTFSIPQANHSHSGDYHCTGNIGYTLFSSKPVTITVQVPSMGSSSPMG
# B1: GpH7-B3 variant T335_05P/GpL16-k0 (antibody, human IgG1, kappa)
# heavy: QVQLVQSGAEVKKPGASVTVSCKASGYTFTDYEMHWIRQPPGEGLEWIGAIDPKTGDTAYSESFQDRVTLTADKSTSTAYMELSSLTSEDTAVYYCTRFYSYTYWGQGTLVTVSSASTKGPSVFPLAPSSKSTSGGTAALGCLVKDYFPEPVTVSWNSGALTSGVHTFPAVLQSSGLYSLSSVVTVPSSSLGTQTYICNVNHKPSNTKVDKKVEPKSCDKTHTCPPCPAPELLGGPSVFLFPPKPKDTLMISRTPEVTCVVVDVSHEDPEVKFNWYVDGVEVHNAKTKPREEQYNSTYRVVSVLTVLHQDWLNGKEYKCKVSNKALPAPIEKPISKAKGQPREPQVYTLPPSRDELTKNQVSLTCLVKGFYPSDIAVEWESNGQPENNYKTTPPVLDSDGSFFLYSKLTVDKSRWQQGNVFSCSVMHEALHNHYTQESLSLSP
# light: DIVMTQSPLSLPVTPGEPASISCQASESLVHSNRNTYLHWYLQKPGQSPQLLIYKVSNRFSGVPDRFSGSGSGTDFTLKISRVEAEDVGVYYCSQNTHVPPTFGQGTKVEIERTVAAPSVFIFPPSDEQLKSGTASVVCLLNNFYPREAKVQWKVDNALQSGNSQESVTEQDSKDSTYSLSSTLTLSKADYEKHKVYACEVTHQGLSSPVTKSFNRGEC
# notes: homodimerized; mutation in both H chains; also called Ho Ab
# B2: GpH7-A5/GpH7-B3 variant G237_04F/GpL16-k0 (antibody, human IgG1, kappa)
# heavy 1: not shown
# heavy 2: not shown
# light: B1 light
# notes: heterodimerized; mutation in one H chain; also called He Ab
# B3: GpH7-B3 variant S239_10E/GpL16-k0 (antibody, human IgG1, kappa)
# heavy: not shown
# light: B1 light
# notes: as for B1
# B4: GpH7-B3 variant T335_02A/GpL16-k0 (antibody, human IgG1, kappa)
# heavy: not shown
# light: B1 light
# notes: as for B1
# B5: GpH7-B3 variant P331_20W/GpL16-k0 (antibody, human IgG1, kappa)
# heavy: not shown
# light: B1 light
# notes: as for B1
# B6: GpH7-B3 variant P331_16H/GpL16-k0 (antibody, human IgG1, kappa)
# heavy: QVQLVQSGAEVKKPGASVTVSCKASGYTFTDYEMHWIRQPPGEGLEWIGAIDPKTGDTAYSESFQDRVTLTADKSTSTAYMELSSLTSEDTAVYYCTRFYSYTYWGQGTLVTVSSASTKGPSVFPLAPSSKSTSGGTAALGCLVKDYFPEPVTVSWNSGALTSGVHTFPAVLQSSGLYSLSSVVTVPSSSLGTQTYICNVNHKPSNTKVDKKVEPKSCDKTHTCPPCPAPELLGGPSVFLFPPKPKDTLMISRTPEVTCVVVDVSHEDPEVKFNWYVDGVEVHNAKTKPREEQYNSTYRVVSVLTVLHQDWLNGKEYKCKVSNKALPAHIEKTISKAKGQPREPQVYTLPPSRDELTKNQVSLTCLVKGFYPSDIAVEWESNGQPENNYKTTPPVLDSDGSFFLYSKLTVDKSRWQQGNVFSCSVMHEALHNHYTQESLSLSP
# light: B1 light
# notes: as for B1
# B7: GpH7-B3 variant P331_02A/GpL16-k0 (antibody, human IgG1, kappa)
# heavy: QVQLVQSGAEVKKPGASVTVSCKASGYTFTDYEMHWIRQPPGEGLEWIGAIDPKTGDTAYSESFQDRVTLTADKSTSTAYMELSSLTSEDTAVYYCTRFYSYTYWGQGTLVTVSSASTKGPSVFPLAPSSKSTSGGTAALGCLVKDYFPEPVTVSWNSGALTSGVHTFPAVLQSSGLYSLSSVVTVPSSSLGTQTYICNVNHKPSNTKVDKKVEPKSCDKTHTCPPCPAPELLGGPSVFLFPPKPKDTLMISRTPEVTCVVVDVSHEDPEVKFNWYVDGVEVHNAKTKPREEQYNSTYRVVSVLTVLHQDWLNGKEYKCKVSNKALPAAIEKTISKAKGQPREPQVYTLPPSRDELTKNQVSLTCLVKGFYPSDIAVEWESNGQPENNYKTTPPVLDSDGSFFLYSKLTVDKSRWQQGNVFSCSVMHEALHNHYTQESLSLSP
# light: B1 light
# notes: as for B1
# B8: GpH7-A5/GpH7-B3 variant A330_01G/GpL16-k0 (antibody, human IgG1, kappa)
# heavy 1: not shown
# heavy 2: not shown
# light: B1 light
# notes: as for B2
# B9: GpH7-A5/GpH7-B3 variant K326_07I/GpL16-k0 (antibody, human IgG1, kappa)
# heavy 1: not shown
# heavy 2: not shown
# light: B1 light
# notes: as for B2
# B10: GpH7-B3 variant S337_07I/GpL16-k0 (antibody, human IgG1, kappa)
# heavy: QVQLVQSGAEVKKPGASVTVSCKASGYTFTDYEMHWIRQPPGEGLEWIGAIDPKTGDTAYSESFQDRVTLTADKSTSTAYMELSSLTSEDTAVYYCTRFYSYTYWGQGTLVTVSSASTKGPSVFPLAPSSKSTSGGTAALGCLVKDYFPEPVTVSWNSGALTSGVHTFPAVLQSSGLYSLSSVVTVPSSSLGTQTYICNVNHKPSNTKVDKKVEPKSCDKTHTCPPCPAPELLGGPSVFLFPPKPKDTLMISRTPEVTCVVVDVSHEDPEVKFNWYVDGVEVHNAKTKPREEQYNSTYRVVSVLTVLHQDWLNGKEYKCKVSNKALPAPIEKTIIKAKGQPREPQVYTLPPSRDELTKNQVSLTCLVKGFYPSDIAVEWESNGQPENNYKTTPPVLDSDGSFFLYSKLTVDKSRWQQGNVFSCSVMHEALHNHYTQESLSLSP
# light: B1 light
# notes: as for B1
# B11: GpH7-B3 variant S337_06M/GpL16-k0 (antibody, human IgG1, kappa)
# heavy: not shown
# light: B1 light
# notes: as for B1
# B12: GpH7-B3 variant S337_19Q/GpL16-k0 (antibody, human IgG1, kappa)
# heavy: not shown
# light: B1 light
# notes: as for B1
# B13: GpH7-B3 variant L235_20W/GpL16-k0 (antibody, human IgG1, kappa)
# heavy: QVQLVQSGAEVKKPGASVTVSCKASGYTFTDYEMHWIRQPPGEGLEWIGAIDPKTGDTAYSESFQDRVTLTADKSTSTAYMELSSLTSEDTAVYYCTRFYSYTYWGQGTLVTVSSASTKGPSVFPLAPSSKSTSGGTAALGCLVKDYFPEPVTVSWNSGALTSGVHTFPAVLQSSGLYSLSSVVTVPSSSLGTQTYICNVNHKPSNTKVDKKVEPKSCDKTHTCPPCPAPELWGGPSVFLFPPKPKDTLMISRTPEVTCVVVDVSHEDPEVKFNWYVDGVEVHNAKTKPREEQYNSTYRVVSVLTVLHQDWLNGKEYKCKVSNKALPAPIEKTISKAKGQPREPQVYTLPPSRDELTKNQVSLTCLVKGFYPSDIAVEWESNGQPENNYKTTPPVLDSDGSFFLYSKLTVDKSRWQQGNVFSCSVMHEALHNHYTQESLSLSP
# light: B1 light
# notes: as for B1
# B14: GpH7-B3 variant P238_04F/GpL16-k0 (antibody, human IgG1, kappa)
# heavy: not shown
# light: B1 light
# notes: as for B1
# B15: GpH7-A5/GpH7-B3 variant I336_08L/GpL16-k0 (antibody, human IgG1, kappa)
# heavy 1: not shown
# heavy 2: not shown
# light: B1 light
# notes: as for B2
# B16: GpH7-B3 variant S267_09D/GpL16-k0 (antibody, human IgG1, kappa)
# heavy: not shown
# light: B1 light
# notes: as for B1
# B17: GpH7-A5/GpH7-B3 variant A330_12R/GpL16-k0 (antibody, human IgG1, kappa)
# heavy 1: not shown
# heavy 2: not shown
# light: B1 light
# notes: as for B2
# B18: GpH7-B3 variant S298_08L/GpL16-k0 (antibody, human IgG1, kappa)
# heavy: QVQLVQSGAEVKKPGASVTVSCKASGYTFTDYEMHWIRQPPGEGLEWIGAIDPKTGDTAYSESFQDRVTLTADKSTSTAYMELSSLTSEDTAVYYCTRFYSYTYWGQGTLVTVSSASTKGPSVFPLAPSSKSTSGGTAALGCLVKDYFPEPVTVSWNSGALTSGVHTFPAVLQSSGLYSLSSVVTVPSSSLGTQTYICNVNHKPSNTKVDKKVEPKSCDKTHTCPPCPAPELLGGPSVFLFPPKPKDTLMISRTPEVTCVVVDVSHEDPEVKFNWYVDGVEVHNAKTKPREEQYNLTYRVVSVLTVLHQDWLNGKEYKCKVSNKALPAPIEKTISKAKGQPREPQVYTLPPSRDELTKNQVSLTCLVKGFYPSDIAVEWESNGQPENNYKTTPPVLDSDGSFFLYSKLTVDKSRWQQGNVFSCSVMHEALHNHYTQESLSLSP
# light: B1 light
# notes: as for B1
# B19: GpH7-A5/GpH7-B3 variant H268_01G/GpL16-k0 (antibody, human IgG1, kappa)
# heavy 1: not shown
# heavy 2: not shown
# light: B1 light
# notes: as for B2
# B20: GpH7-A5/GpH7-B3 variant K334_04F/GpL16-k0 (antibody, human IgG1, kappa)
# heavy 1: not shown
# heavy 2: not shown
# light: B1 light
# notes: as for B2
# B21: GpH7-A5/GpH7-B3 variant K326_08L/GpL16-k0 (antibody, human IgG1, kappa)
# heavy 1: not shown
# heavy 2: not shown
# light: B1 light
# notes: as for B2
# B22: GpH7-B3 variant L328_13S/GpL16-k0 (antibody, human IgG1, kappa)
# heavy: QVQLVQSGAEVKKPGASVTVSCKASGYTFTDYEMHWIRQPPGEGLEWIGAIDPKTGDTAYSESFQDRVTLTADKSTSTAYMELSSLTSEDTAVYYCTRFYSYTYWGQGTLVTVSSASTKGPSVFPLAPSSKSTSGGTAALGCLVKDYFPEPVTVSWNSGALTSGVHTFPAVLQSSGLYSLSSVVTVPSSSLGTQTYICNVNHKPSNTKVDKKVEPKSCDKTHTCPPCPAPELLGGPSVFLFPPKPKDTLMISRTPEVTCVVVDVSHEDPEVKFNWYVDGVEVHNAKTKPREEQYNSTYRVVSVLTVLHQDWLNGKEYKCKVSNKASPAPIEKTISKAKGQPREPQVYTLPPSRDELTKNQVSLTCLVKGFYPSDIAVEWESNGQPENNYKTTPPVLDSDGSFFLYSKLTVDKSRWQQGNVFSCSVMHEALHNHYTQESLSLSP
# light: B1 light
# notes: as for B1
# B23: GpH7-B3 variant S267_19Q/GpL16-k0 (antibody, human IgG1, kappa)
# heavy: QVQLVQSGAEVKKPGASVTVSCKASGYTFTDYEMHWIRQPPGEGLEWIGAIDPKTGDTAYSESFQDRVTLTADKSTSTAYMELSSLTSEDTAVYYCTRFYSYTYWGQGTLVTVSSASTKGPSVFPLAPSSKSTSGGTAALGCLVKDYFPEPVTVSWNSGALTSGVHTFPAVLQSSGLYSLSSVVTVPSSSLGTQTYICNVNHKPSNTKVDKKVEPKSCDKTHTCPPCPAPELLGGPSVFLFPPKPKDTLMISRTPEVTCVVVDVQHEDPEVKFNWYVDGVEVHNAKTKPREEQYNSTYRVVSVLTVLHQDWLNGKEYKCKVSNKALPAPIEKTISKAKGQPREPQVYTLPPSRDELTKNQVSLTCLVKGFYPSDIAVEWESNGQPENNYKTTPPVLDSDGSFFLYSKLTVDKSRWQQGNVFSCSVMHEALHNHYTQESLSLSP
# light: B1 light
# notes: as for B1
# B24: GpH7-B3 variant K334_10E/GpL16-k0 (antibody, human IgG1, kappa)
# heavy: not shown
# light: B1 light
# notes: as for B1
# B25: GpH7-A5/GpH7-B3 variant K326_03V/GpL16-k0 (antibody, human IgG1, kappa)
# heavy 1: not shown
# heavy 2: not shown
# light: B1 light
# notes: as for B2
# B26: GpH7-B3 variant P331_04F/GpL16-k0 (antibody, human IgG1, kappa)
# heavy: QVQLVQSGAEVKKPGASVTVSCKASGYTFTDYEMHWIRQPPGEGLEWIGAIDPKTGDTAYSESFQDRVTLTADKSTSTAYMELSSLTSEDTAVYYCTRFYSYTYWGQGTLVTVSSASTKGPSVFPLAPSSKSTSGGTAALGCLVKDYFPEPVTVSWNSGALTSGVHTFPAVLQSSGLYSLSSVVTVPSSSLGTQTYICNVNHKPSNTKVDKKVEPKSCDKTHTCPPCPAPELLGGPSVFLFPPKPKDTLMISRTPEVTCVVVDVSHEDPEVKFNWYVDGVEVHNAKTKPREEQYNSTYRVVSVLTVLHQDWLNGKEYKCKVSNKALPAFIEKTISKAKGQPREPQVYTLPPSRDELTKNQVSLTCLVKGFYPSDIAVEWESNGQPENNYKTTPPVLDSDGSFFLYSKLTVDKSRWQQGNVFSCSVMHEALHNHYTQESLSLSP
# light: B1 light
# notes: as for B1
# B27: GpH7-B3 variant S324_06M/GpL16-k0 (antibody, human IgG1, kappa)
# heavy: not shown
# light: B1 light
# notes: as for B1
# B28: GpH7-B3 variant T335_10E/GpL16-k0 (antibody, human IgG1, kappa)
# heavy: not shown
# light: B1 light
# notes: as for B1
# B29: GpH7-B3 variant S337_15Y/GpL16-k0 (antibody, human IgG1, kappa)
# heavy: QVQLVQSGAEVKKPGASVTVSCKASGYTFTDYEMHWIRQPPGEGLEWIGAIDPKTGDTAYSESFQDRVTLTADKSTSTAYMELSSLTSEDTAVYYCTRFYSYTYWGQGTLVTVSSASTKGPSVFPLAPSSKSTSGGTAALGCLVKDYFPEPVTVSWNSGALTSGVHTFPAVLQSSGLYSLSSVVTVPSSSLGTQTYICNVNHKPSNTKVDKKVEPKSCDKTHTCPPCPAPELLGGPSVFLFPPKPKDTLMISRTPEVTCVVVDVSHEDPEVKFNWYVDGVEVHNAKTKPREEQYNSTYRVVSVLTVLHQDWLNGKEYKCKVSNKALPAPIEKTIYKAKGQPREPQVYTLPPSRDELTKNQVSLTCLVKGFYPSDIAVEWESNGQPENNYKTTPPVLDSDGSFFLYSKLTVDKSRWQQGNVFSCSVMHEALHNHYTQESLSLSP
# light: B1 light
# notes: as for B1
# B30: GpH7-B3 variant K334_08L/GpL16-k0 (antibody, human IgG1, kappa)
# heavy: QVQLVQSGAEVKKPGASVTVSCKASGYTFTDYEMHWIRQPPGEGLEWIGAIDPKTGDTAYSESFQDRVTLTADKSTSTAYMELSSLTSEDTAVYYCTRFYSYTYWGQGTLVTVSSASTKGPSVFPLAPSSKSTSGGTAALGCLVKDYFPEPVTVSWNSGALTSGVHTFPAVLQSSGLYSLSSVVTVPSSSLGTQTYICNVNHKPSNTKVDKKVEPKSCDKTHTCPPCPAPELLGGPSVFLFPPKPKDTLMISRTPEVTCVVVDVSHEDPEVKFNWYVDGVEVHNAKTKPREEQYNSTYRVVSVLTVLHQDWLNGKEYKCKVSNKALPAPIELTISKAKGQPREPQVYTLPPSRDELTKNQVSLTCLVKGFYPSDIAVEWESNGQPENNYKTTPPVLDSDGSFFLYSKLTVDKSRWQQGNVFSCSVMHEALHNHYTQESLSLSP
# light: B1 light
# notes: as for B1
# Target: T1, FcγRIIa R (extracellular domain with a …)
# Experiment: SPR Biacore, relative binding
Ho/Con_2aR,He/Con_2aR,Binder
104 % of GpH7-B3/GpL16-k0 (=100),,B1
,126 % of GpH7-A5/GpH7-B3/GpL16-k0 (=100),B2
122 % of GpH7-B3/GpL16-k0 (=100),,B3
102 % of GpH7-B3/GpL16-k0 (=100),,B4
102 % of GpH7-B3/GpL16-k0 (=100),,B5
100 % of GpH7-B3/GpL16-k0 (=100),,B6
102 % of GpH7-B3/GpL16-k0 (=100),,B7
,109 % of GpH7-A5/GpH7-B3/GpL16-k0 (=100),B8
,147 % of GpH7-A5/GpH7-B3/GpL16-k0 (=100),B9
103 % of GpH7-B3/GpL16-k0 (=100),,B10
101 % of GpH7-B3/GpL16-k0 (=100),,B11
102 % of GpH7-B3/GpL16-k0 (=100),,B12
114 % of GpH7-B3/GpL16-k0 (=100),,B13
146 % of GpH7-B3/GpL16-k0 (=100),,B14
,110 % of GpH7-A5/GpH7-B3/GpL16-k0 (=100),B15
167 % of GpH7-B3/GpL16-k0 (=100),,B16
,104 % of GpH7-A5/GpH7-B3/GpL16-k0 (=100),B17
101 % of GpH7-B3/GpL16-k0 (=100),,B18
,124 % of GpH7-A5/GpH7-B3/GpL16-k0 (=100),B19
,110 % of GpH7-A5/GpH7-B3/GpL16-k0 (=100),B20
,137 % of GpH7-A5/GpH7-B3/GpL16-k0 (=100),B21
108 % of GpH7-B3/GpL16-k0 (=100),,B22
110 % of GpH7-B3/GpL16-k0 (=100),,B23
106 % of GpH7-B3/GpL16-k0 (=100),,B24
,141 % of GpH7-A5/GpH7-B3/GpL16-k0 (=100),B25
106 % of GpH7-B3/GpL16-k0 (=100),,B26
118 % of GpH7-B3/GpL16-k0 (=100),,B27
109 % of GpH7-B3/GpL16-k0 (=100),,B28
100 % of GpH7-B3/GpL16-k0 (=100),,B29
105 % of GpH7-B3/GpL16-k0 (=100),,B30
